Measurements published in paper PMC7084321, “Structural and Functional Characterization of New SsoPox Variant Points to the Dimer Interface as a Driver for the Increase in Promiscuous Paraoxonase Activity” (International Journal of Molecular Sciences, 2020).

Biological target: the molecule itself
Experiment: crystal structure; sitting drop vapor diffusion at 19 °C; space group P212121, two dimers per asymmetric unit; 4Mut at 6.0 mg/mL in 20 mM HEPES-NaOH pH 8.5, 0.5 mM CoCl2, 200 mM NaCl

B1: SsoPox V82L/C258L/I261F/W263A (4Mut) (enzyme, Saccharolobus solfataricus, UniProt Q97VT7 1-314, looked up)
chain: MRIPLVGKDSIESKDIGFTLIHEHLRVFSEAVRQQWPHLYNEDEEFRNAVNEVKRAMQFGVKTIVDPTVMGLGRDIRFMEKLVKATGINLVAGTGIYIYIDLPFYFLNRSIDEIADLFIHDIKEGIQGTLNKAGFVKIAADEPGITKDVEKVIRAAAIANKETKVPIITHSNAHNNTGLEQQRILTEEGVDPGKILIGHLGDTDNIDYIKKIADKGSFIGLDRYGLDLFLPVDKRNETTLRLIKDGYSDKIMISHDYLCTFDAGTAKPEYKPKLAPRWSITLIFEDTIPFLKRNGVNEEVIATIFKENPKKFFS
notes: SsoPox, phosphotriesterase-like lactonase from Saccharolobus solfataricus, with four substitutions; primers run from the start codon (NdeI site) to behind the stop codon (HindIII site); Two cobalt atoms per protein by ICP-MS; also called SsoPox 4Mut; SsoPox-4Mut; source: E. coli BL21(DE3), pT7-7-4Mut, purified (thermoprecipitation, Q-Sepharose, Superdex 75, MonoQ)
binding result: binds
